From paper PMC5384220, “Highly selective inhibition of histone demethylases by de novo macrocyclic peptides” (Nature Communications, 2017)

Molecular target: T1, KDM2A (human, UniProt Q9Y2K7 1-1162)
T1 sequence (looked up): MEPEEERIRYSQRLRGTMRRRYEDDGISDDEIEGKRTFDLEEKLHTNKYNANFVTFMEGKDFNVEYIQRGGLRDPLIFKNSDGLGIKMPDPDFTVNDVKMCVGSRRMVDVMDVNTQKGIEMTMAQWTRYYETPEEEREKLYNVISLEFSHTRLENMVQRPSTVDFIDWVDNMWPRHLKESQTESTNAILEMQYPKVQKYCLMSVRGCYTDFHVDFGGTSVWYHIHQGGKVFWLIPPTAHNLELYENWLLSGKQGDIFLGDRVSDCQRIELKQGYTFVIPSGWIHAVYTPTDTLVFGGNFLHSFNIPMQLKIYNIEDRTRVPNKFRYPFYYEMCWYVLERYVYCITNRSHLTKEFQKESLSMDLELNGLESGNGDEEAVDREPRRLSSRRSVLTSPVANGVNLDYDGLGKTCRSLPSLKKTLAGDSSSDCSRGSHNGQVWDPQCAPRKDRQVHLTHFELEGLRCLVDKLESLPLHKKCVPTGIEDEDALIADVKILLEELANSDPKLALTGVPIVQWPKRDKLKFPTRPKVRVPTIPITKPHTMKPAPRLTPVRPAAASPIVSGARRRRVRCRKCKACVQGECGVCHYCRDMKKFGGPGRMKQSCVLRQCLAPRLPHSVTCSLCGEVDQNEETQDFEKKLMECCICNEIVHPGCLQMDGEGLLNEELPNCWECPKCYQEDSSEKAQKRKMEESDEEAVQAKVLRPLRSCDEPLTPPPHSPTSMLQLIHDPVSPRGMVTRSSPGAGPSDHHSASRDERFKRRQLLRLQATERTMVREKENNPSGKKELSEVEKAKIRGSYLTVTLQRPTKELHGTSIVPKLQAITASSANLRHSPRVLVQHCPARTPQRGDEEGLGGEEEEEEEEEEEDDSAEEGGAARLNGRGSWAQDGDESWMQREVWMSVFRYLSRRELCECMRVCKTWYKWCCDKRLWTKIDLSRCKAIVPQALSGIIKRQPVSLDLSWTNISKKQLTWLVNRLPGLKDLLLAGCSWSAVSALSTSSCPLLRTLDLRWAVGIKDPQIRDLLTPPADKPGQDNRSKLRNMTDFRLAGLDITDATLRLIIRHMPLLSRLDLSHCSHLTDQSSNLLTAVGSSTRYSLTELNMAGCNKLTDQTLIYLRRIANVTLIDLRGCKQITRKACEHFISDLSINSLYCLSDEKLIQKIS
Assay: cell-based or functional assay

- IC50 of inhibition of demethylase activity (AlphaScreen activity assay): > 10 µM
B1: CP4 (peptide)
chain: YLKSRRSGLTWIPC
modifications: not fully specified; N-terminal L-Tyr (^LTyr library, N-chloroacetyl-L-Tyr) cyclised by a thioether to a downstream cysteine
